Test results reported in PMC11502334, “Fungal glyceraldehyde 3-phosphate dehydrogenase GpdC maintains glycolytic mechanism against reactive nitrogen stress-induced damage” (Frontiers in Microbiology, 2024).

Key:
Test in all cases: purified protein
Format in all cases: biochemical, Aspergillus nidulans
[1] = substrate: NC(=O)c1ccc[n+]([C@@H]2O[C@H](COP(=O)(O)OP(=O)(O)OC[C@H]3O[C@@H](n4cnc5c(N)ncnc54)[C@H](O)[C@@H]3O)[C@@H](O)[C@H]2O)c1; details: GAP as co-substrate, 30 mM sodium pyrophosphate, 10 mM potassium phosphate, pH 8.4, 25°C, varied: cofactor
[2] = substrate: O=C[C@H](O)COP(=O)(O)O; details: 30 mM sodium pyrophosphate, 10 mM potassium phosphate, pH 8.4, 25°C
[3] = substrate: NC(=O)c1ccc[n+]([C@@H]2O[C@H](COP(=O)(O)OP(=O)(O)OC[C@H]3O[C@@H](n4cnc5c(N)ncnc54)[C@H](OP(=O)(O)O)[C@@H]3O)[C@@H](O)[C@H]2O)c1; details: GAP as co-substrate, 30 mM sodium pyrophosphate, 10 mM potassium phosphate, pH 8.4, 25°C, varied: cofactor
[4] = co-substrate (NAD+ or NADP+) not given

B1: rGpdA (GpdA) (Aspergillus nidulans FGSC A4) (protein)
chain: MAPKVGINGFGRIGRIVFRNAIEAGTVDVVAVNDPFIETHYAAYMLKYDSQHGQFKGTIETYDEGLIVNGKKIRFHTERDPANIPWGQDGAEYIVESTGVFTTQEKASAHLKGGAKKVVISAPSADAPMFVMGVNNETYKKDIQVLSNASCTTNCLAPLAKVINDNFGIIEGLMTTVHSYTATQKVVDGPSAKDWRGGRTAATNIIPSSTGAAKAVGKVIPSLNGKLTGMAMRVPTSNVSVVDLTVRTEKAVTYDQIKDAVKKASENELKGILGYTEDDIVSTDLNGDTRSSIFDAKAGIALNSNFIKLVSWYDNEWGYSRRVVDLITYISKVDAQ
notes: recombinant from cDNA, vector pET-21a, expressed in E. coli BL21 (DE3), HisTrap purified
Km [1]: 180 ± 30 µM | kcat [1]: 85 ± 3.33 s⁻¹ | kcat/Km [1]: 467000 ± 117000 M⁻¹ s⁻¹ | Km ([2]; NAD+ as co-substrate): 410 ± 90 µM | kcat ([2]; NAD+ as co-substrate): 55 ± 3.33 s⁻¹ | kcat/Km ([2]; NAD+ as co-substrate): 132000 ± 40000 M⁻¹ s⁻¹

B2: rGpdC (GpdC) (Aspergillus nidulans FGSC A4) (protein)
chain: MAPSINEIPISDSPSACRVGINGFGRIGRNVLRVALARNDIQIVAINHTCTSVQDLIYLIRYDSSMGKLSPDIPIHAISETQISVNGRPIALTSERDLKKLNWAALGAEYVVECTGKFTKRELAQDHITYGGAKRVVISAPSSDSPTYVYGVNADEYRANEETRVISCASCTTNCVTPVLKVLQREFGIAQGFLTTVHAATKSQTVLDGYSKKNRRLGRSVFDNIIPTTTGAAKAIASVLPELTGKVTGASIRVPTPNVSLIDLTVSTETPTSLAEILAAFRRAAKNELAGVLSVSDEVLVSSDYLGDSHSAIVDAAACSELNPTFFKIMAWYDNEWGYSSRLLDLTRHIAHNE
notes: recombinant from synthetic E. coli codon-optimized gene, vector pET-21a (Nde I/Hind III), expressed in E. coli BL21 (DE3), HisTrap purified
Km [1]: 420 ± 20 µM | kcat [1]: 4 ± 0.333 s⁻¹ | kcat/Km [1]: 9330 ± 333 M⁻¹ s⁻¹ | Km [3]: 47 ± 2 µM | kcat [3]: 8.83 ± 0.5 s⁻¹ | kcat/Km [3]: 183000 ± 16700 M⁻¹ s⁻¹ | Km [2, 4]: 290 ± 20 µM | kcat [2, 4]: 2.67 ± 0.333 s⁻¹ | kcat/Km [2, 4]: 9170 ± 333 M⁻¹ s⁻¹
